From patent US20140087995A1 (published 2014)
Numbered stars: 1 amine (or outer) side, 2 acyl side, 3 side chain; on linkers, the order of the positions; unused ones are H or OH. Bridge positions count the residues as written; N and C are the ends. Side chains are listed from the residue outwards. Ends that are not written are not given here. * marks the point of attachment. C20 diacid = O=C(O)CCCCCCCCCCCCCCCCCCC(=O)*; γGlu = O=C(O)[C@H](CCC(=O)[*:2])N[*:1]

T1: human amylin receptor (amylin 3(a) receptor: human calcitonin receptor with RAMP-3) (human, UniProt P30988 25-474; O60896 24-148)
T1 construct: whole, on cells; also called hAmylin-R; hAmylinR
T1 sequence (looked up) 1: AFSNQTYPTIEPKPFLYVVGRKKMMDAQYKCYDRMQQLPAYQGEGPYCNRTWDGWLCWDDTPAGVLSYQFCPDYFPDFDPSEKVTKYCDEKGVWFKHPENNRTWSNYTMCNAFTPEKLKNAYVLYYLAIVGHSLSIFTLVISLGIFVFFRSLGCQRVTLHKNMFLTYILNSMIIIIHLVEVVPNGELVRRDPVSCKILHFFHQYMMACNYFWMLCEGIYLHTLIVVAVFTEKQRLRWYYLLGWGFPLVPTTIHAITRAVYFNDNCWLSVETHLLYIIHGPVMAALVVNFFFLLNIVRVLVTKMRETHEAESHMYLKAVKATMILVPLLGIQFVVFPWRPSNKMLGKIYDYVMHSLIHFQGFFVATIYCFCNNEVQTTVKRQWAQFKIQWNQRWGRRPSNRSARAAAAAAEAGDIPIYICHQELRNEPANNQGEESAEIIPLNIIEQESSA
T1 sequence (looked up) 2: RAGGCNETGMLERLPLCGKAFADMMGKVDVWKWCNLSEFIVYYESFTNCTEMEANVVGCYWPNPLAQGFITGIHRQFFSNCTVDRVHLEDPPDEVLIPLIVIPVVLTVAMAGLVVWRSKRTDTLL

B1: N^ε1-[(4S)-4-carboxy-4-(19-carboxynonadecanoylamino)butanoyl]-[Arg17,Pro21,Pro27,His35]-h-amylin (peptide)
peptide: K([γGlu-C20 diacid])CNTATCATQRLANFLRHSSPNFGAIPSSTNVGSHTY-NH2
modifications: disulfide 2-7; N-terminus assumed
SMILES: CC[C@H](C)[C@H](NC(=O)[C@H](C)NC(=O)CNC(=O)[C@H](Cc1ccccc1)NC(=O)[C@H](CC(N)=O)NC(=O)[C@@H]1CCCN1C(=O)[C@H](CO)NC(=O)[C@H](CO)NC(=O)[C@H](Cc1c[nH]cn1)NC(=O)[C@H](CCCNC(=N)N)NC(=O)[C@H](CC(C)C)NC(=O)[C@H](Cc1ccccc1)NC(=O)[C@H](CC(N)=O)NC(=O)[C@H](C)NC(=O)[C@H](CC(C)C)NC(=O)[C@H](CCCNC(=N)N)NC(=O)[C@H](CCC(N)=O)NC(=O)[C@@H](NC(=O)[C@H](C)NC(=O)[C@@H]1CSSC[C@H](NC(=O)[C@@H](N)CCCCNC(=O)CC[C@H](NC(=O)CCCCCCCCCCCCCCCCCCC(=O)O)C(=O)O)C(=O)N[C@@H](CC(N)=O)C(=O)N[C@@H]([C@@H](C)O)C(=O)N[C@@H](C)C(=O)N[C@@H]([C@@H](C)O)C(=O)N1)[C@@H](C)O)C(=O)N1CCC[C@H]1C(=O)N[C@@H](CO)C(=O)N[C@@H](CO)C(=O)N[C@H](C(=O)N[C@@H](CC(N)=O)C(=O)N[C@H](C(=O)NCC(=O)N[C@@H](CO)C(=O)N[C@@H](Cc1c[nH]cn1)C(=O)N[C@H](C(=O)N[C@@H](Cc1ccc(O)cc1)C(N)=O)[C@@H](C)O)C(C)C)[C@@H](C)O
notes: also called 60; compound 60
B2: N^ε1-[(4S)-4-carboxy-4-(19-carboxynonadecanoylamino)butanoyl]-[Glu14,Arg17,Pro21,Pro27,Arg35]-h-amylin (peptide)
peptide: K([γGlu-C20 diacid])CNTATCATQRLAEFLRHSSPNFGAIPSSTNVGSRTY-NH2
modifications: disulfide 2-7; N-terminus assumed
SMILES: CC[C@H](C)[C@H](NC(=O)[C@H](C)NC(=O)CNC(=O)[C@H](Cc1ccccc1)NC(=O)[C@H](CC(N)=O)NC(=O)[C@@H]1CCCN1C(=O)[C@H](CO)NC(=O)[C@H](CO)NC(=O)[C@H](Cc1c[nH]cn1)NC(=O)[C@H](CCCNC(=N)N)NC(=O)[C@H](CC(C)C)NC(=O)[C@H](Cc1ccccc1)NC(=O)[C@H](CCC(=O)O)NC(=O)[C@H](C)NC(=O)[C@H](CC(C)C)NC(=O)[C@H](CCCNC(=N)N)NC(=O)[C@H](CCC(N)=O)NC(=O)[C@@H](NC(=O)[C@H](C)NC(=O)[C@@H]1CSSC[C@H](NC(=O)[C@@H](N)CCCCNC(=O)CC[C@H](NC(=O)CCCCCCCCCCCCCCCCCCC(=O)O)C(=O)O)C(=O)N[C@@H](CC(N)=O)C(=O)N[C@@H]([C@@H](C)O)C(=O)N[C@@H](C)C(=O)N[C@@H]([C@@H](C)O)C(=O)N1)[C@@H](C)O)C(=O)N1CCC[C@H]1C(=O)N[C@@H](CO)C(=O)N[C@@H](CO)C(=O)N[C@H](C(=O)N[C@@H](CC(N)=O)C(=O)N[C@H](C(=O)NCC(=O)N[C@@H](CO)C(=O)N[C@@H](CCCNC(=N)N)C(=O)N[C@H](C(=O)N[C@@H](Cc1ccc(O)cc1)C(N)=O)[C@@H](C)O)C(C)C)[C@@H](C)O
notes: also called 51; compound 51
B3: N^ε1-[(4S)-4-carboxy-4-(19-carboxynonadecanoylamino)butanoyl]-[His14,Arg17,Pro21,Pro27,His34]-h-amylin (peptide)
peptide: K([γGlu-C20 diacid])CNTATCATQRLAHFLRHSSPNFGAIPSSTNVGHNTY-NH2
modifications: disulfide 2-7; N-terminus assumed
SMILES: CC[C@H](C)[C@H](NC(=O)[C@H](C)NC(=O)CNC(=O)[C@H](Cc1ccccc1)NC(=O)[C@H](CC(N)=O)NC(=O)[C@@H]1CCCN1C(=O)[C@H](CO)NC(=O)[C@H](CO)NC(=O)[C@H](Cc1c[nH]cn1)NC(=O)[C@H](CCCNC(=N)N)NC(=O)[C@H](CC(C)C)NC(=O)[C@H](Cc1ccccc1)NC(=O)[C@H](Cc1c[nH]cn1)NC(=O)[C@H](C)NC(=O)[C@H](CC(C)C)NC(=O)[C@H](CCCNC(=N)N)NC(=O)[C@H](CCC(N)=O)NC(=O)[C@@H](NC(=O)[C@H](C)NC(=O)[C@@H]1CSSC[C@H](NC(=O)[C@@H](N)CCCCNC(=O)CC[C@H](NC(=O)CCCCCCCCCCCCCCCCCCC(=O)O)C(=O)O)C(=O)N[C@@H](CC(N)=O)C(=O)N[C@@H]([C@@H](C)O)C(=O)N[C@@H](C)C(=O)N[C@@H]([C@@H](C)O)C(=O)N1)[C@@H](C)O)C(=O)N1CCC[C@H]1C(=O)N[C@@H](CO)C(=O)N[C@@H](CO)C(=O)N[C@H](C(=O)N[C@@H](CC(N)=O)C(=O)N[C@H](C(=O)NCC(=O)N[C@@H](Cc1c[nH]cn1)C(=O)N[C@@H](CC(N)=O)C(=O)N[C@H](C(=O)N[C@@H](Cc1ccc(O)cc1)C(N)=O)[C@@H](C)O)C(C)C)[C@@H](C)O
notes: also called 81; compound 81
B4: N^ε1-[(4S)-4-carboxy-4-(19-carboxynonadecanoylamino)butanoyl]-[His14,Arg17,Pro21,Pro27,Arg34]-h-amylin (peptide)
peptide: K([γGlu-C20 diacid])CNTATCATQRLAHFLRHSSPNFGAIPSSTNVGRNTY-NH2
modifications: disulfide 2-7; N-terminus assumed
SMILES: CC[C@H](C)[C@H](NC(=O)[C@H](C)NC(=O)CNC(=O)[C@H](Cc1ccccc1)NC(=O)[C@H](CC(N)=O)NC(=O)[C@@H]1CCCN1C(=O)[C@H](CO)NC(=O)[C@H](CO)NC(=O)[C@H](Cc1c[nH]cn1)NC(=O)[C@H](CCCNC(=N)N)NC(=O)[C@H](CC(C)C)NC(=O)[C@H](Cc1ccccc1)NC(=O)[C@H](Cc1c[nH]cn1)NC(=O)[C@H](C)NC(=O)[C@H](CC(C)C)NC(=O)[C@H](CCCNC(=N)N)NC(=O)[C@H](CCC(N)=O)NC(=O)[C@@H](NC(=O)[C@H](C)NC(=O)[C@@H]1CSSC[C@H](NC(=O)[C@@H](N)CCCCNC(=O)CC[C@H](NC(=O)CCCCCCCCCCCCCCCCCCC(=O)O)C(=O)O)C(=O)N[C@@H](CC(N)=O)C(=O)N[C@@H]([C@@H](C)O)C(=O)N[C@@H](C)C(=O)N[C@@H]([C@@H](C)O)C(=O)N1)[C@@H](C)O)C(=O)N1CCC[C@H]1C(=O)N[C@@H](CO)C(=O)N[C@@H](CO)C(=O)N[C@H](C(=O)N[C@@H](CC(N)=O)C(=O)N[C@H](C(=O)NCC(=O)N[C@@H](CCCNC(=N)N)C(=O)N[C@@H](CC(N)=O)C(=O)N[C@H](C(=O)N[C@@H](Cc1ccc(O)cc1)C(N)=O)[C@@H](C)O)C(C)C)[C@@H](C)O
notes: also called 85; compound 85
B5: N^ε1-[(4S)-4-carboxy-4-(19-carboxynonadecanoylamino)butanoyl]-[Arg17,Pro21,Pro27,Lys35]-h-amylin (peptide)
peptide: K([γGlu-C20 diacid])CNTATCATQRLANFLRHSSPNFGAIPSSTNVGSKTY-NH2
modifications: disulfide 2-7; N-terminus assumed
SMILES: CC[C@H](C)[C@H](NC(=O)[C@H](C)NC(=O)CNC(=O)[C@H](Cc1ccccc1)NC(=O)[C@H](CC(N)=O)NC(=O)[C@@H]1CCCN1C(=O)[C@H](CO)NC(=O)[C@H](CO)NC(=O)[C@H](Cc1c[nH]cn1)NC(=O)[C@H](CCCNC(=N)N)NC(=O)[C@H](CC(C)C)NC(=O)[C@H](Cc1ccccc1)NC(=O)[C@H](CC(N)=O)NC(=O)[C@H](C)NC(=O)[C@H](CC(C)C)NC(=O)[C@H](CCCNC(=N)N)NC(=O)[C@H](CCC(N)=O)NC(=O)[C@@H](NC(=O)[C@H](C)NC(=O)[C@@H]1CSSC[C@H](NC(=O)[C@@H](N)CCCCNC(=O)CC[C@H](NC(=O)CCCCCCCCCCCCCCCCCCC(=O)O)C(=O)O)C(=O)N[C@@H](CC(N)=O)C(=O)N[C@@H]([C@@H](C)O)C(=O)N[C@@H](C)C(=O)N[C@@H]([C@@H](C)O)C(=O)N1)[C@@H](C)O)C(=O)N1CCC[C@H]1C(=O)N[C@@H](CO)C(=O)N[C@@H](CO)C(=O)N[C@H](C(=O)N[C@@H](CC(N)=O)C(=O)N[C@H](C(=O)NCC(=O)N[C@@H](CO)C(=O)N[C@@H](CCCCN)C(=O)N[C@H](C(=O)N[C@@H](Cc1ccc(O)cc1)C(N)=O)[C@@H](C)O)C(C)C)[C@@H](C)O
notes: also called 35; compound 35
B6: N^ε1-[(4S)-4-carboxy-4-(19-carboxynonadecanoylamino)butanoyl]-[His14,Arg17,Pro21,Pro27,His35]-h-amylin (peptide)
peptide: K([γGlu-C20 diacid])CNTATCATQRLAHFLRHSSPNFGAIPSSTNVGSHTY-NH2
modifications: disulfide 2-7; N-terminus assumed
SMILES: CC[C@H](C)[C@H](NC(=O)[C@H](C)NC(=O)CNC(=O)[C@H](Cc1ccccc1)NC(=O)[C@H](CC(N)=O)NC(=O)[C@@H]1CCCN1C(=O)[C@H](CO)NC(=O)[C@H](CO)NC(=O)[C@H](Cc1c[nH]cn1)NC(=O)[C@H](CCCNC(=N)N)NC(=O)[C@H](CC(C)C)NC(=O)[C@H](Cc1ccccc1)NC(=O)[C@H](Cc1c[nH]cn1)NC(=O)[C@H](C)NC(=O)[C@H](CC(C)C)NC(=O)[C@H](CCCNC(=N)N)NC(=O)[C@H](CCC(N)=O)NC(=O)[C@@H](NC(=O)[C@H](C)NC(=O)[C@@H]1CSSC[C@H](NC(=O)[C@@H](N)CCCCNC(=O)CC[C@H](NC(=O)CCCCCCCCCCCCCCCCCCC(=O)O)C(=O)O)C(=O)N[C@@H](CC(N)=O)C(=O)N[C@@H]([C@@H](C)O)C(=O)N[C@@H](C)C(=O)N[C@@H]([C@@H](C)O)C(=O)N1)[C@@H](C)O)C(=O)N1CCC[C@H]1C(=O)N[C@@H](CO)C(=O)N[C@@H](CO)C(=O)N[C@H](C(=O)N[C@@H](CC(N)=O)C(=O)N[C@H](C(=O)NCC(=O)N[C@@H](CO)C(=O)N[C@@H](Cc1c[nH]cn1)C(=O)N[C@H](C(=O)N[C@@H](Cc1ccc(O)cc1)C(N)=O)[C@@H](C)O)C(C)C)[C@@H](C)O
notes: also called 66; compound 66

target: T1, human amylin receptor (amylin 3(a) …); assay: SPA displacement of 125I-rat amylin, hAmylin 3(a) receptor membranes
How it was run: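 Cell membranes were prepared by homogenisation in Na-HEPES/EDTA buffer, pH 7.4, and stored at −80° C. They were then coupled to SPA beads at 35 ng/μL final and exposed to compounds in assay buffer containing CaCl2, MgCl₂, OA and Tween20. After 120 min at 25° C, plates were counted and IC₅₀ derived.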

IC50 [nM] | Binder
0.695 | B1
0.828 | B2
0.271 | B3
0.876 | B4
0.97 | B5
0.396 | B6
